Patent publication EP4745156A1
Where a chain is given by its changes, count along the chain named.

B1: 7475-H1K1-canIgGB (antibody, V domains shown)
VH: EVQLVESGGDLVKPGGSLRLSCVASGFTFSSYAMSWVRQAPGKGLQWVAYISNGGDYIFYADTVKGRFTISRDNARNTLYLQMNSLRSEDTAVYYCTRRGHYNTSSYWYFDVWGQGTLVTVSS
VL: EIVMTQSPASLSLSQEEKVTITCKASENVGTYVSWYQQKPGQAPKLLIYGASNRYTGVPSRFSGSGSGTDFTFTISSLEPEDVAVYYCGQSYSYPPTFGAGTKVELKR
B2: 7475-H2K1-canIgGB (antibody, V domains shown)
VH: B1 VH with V37I, R76K, S88A
VL: B1 VL
B3: 7475-H3K3-canIgGB (antibody, V domains shown)
VH: B1 VH with Y50R, R76K, S88A, V93M
VL: B1 VL with T72S
B4: 7475-H2K3-canIgGB (antibody, V domains shown)
VH: B1 VH with V37I, R76K, S88A
VL: B1 VL with T72S
B5: 7475-H1K3-canIgGB (antibody, V domains shown)
VH: B1 VH
VL: B1 VL with T72S
B6: 7475-H3K2-canIgGB (antibody, V domains shown)
VH: B1 VH with Y50R, R76K, S88A, V93M
VL: B1 VL with G68A, F73L, L78V
B7: 7475-H3K1-canIgGB (antibody, V domains shown)
VH: B1 VH with Y50R, R76K, S88A, V93M
VL: B1 VL
B8: 7475-H2K2-canIgGB (antibody, V domains shown)
VH: B1 VH with V37I, R76K, S88A
VL: B1 VL with G68A, F73L, L78V
B9: 7475-H1K2-canIgGB (antibody, V domains shown)
VH: B1 VH
VL: B1 VL with G68A, F73L, L78V
B10: B2-mHvKv-canIgGB (antibody, V domains shown)
VH: EVKLVESGGGLVQPGGSMKLSCAASGFTFSDAWMDWVRQSPERGLEWVAEIRSRAESHATYYAESVKGRFTISRDDSKGSVYLQMNSLGTEDTGIYYCTPASTMITTGWFAYWGQGTMVTVSS
VL: NIVMTQSPAILSVTPGDRVSLSCRASQNISVYLHWYQQKSHDSPRVLIKYVSQSISGIPSRFSGSGSGSDFTLRINSVEPEDVGVYYCQNGHSFPYTFGGGTKLEIKR
B11: 6465-H3K3-canIgGB (antibody, V domains shown)
VH: EVQLVESGGDLVKPGGSLRLSCVASGYSFTNYYLYWVRQAPGKGLEWVAELNPRNGGTNLNAKFKTRFTISRDNAKNMAYLQMNSLRAEDTAVYYCTRGGTTVVVRDVMDFWGQGTLVTVSS
VL: DIVMTQTPLSLSVSPGEPASISCRASESVDSYGNSFMHWYRQKPGQSPQLLIYRASNLESGVPDRFSGSGSGTDFTLRISRVEADDAGVYYCQQSNEDPYTFGQGTKLEIKR
B12: 6465-H3K1-canIgGB (antibody, V domains shown)
VH: B11 VH
VL: EIVLTQTPLSLAVTPGELATISCRASESVDSYGNSFMHWYLQKPGQTPRLLIYRASNLESGVSDRFSGSGSRTDFTLKISRVEAEDVGVYYCQQSNEDPYTFGQGTKLEIKR
B13: 6465-H2K1-canIgGB (antibody, V domains shown)
VH: B11 VH with E46Q, V48L, A49G, R72V, N74K, M78T
VL: B12 VL
B14: 6465-H1K1-canIgGB (antibody, V domains shown)
VH: B11 VH with A49G, R72V, N74K
VL: B12 VL
B15: 7475-mHvKv-canIgGB (antibody, V domains shown)
VH: EVKLVESGEGLVKPGGSLKLSCAASGFTFSSYAMSWVRQTPEKRLEWVAYISNGGDYIFYADTVKGRFTISRDNARNTLYLQMSSLKSEDTAMYYCTRRGHYNTSSYWYFDVWGTGTTVTVSS
VL: DIVMTQSPKSMSMSVGERVTLSCKASENVGTYVSWYQQKPEQSPKLLIYGASNRYTGVPDRFTGSGSATDFTLTISSVQAEDLADYHCGQSYSYPPTFGAGTKLELKR
B16: B2-H1K1-canIgGB (antibody, V domains shown)
VH: EVQLVESGGDLVKPGGSLRLSCVASGFTFSDAWMDWVRQAPGKGLQWLAEIRSRAESHATYYAESVKGRFTISRDDAKNTVYLQMNSLRAEDTAVYYCTPASTMITTGWFAYWGQGTLVTVSS
VL: EIVMTQTPLSLAVTPGELATISCRASQNISVYLHWYLQKPGQTPRVLIKYVSQSISGVSDRFSGSGSGSDFTLKISRVEAEDVGVYYCQNGHSFPYTFGQGTKLEIKR
B17: B2-H2K2-canIgGB (antibody, V domains shown)
VH: B16 VH with Q46E, L48V, T80M
VL: DIVMTQTPLSLSVSPGETASISCRASQNISVYLHWYRQKPGQSPQVLIKYVSQSISGVPDRFSGSGSGSDFTLRISRVEADDTGVYYCQNGHSFPYTFGQGTKLEIKR
B18: B2-H1K2-canIgGB (antibody, V domains shown)
VH: B16 VH
VL: B17 VL
B19: B2-H1K3-canIgGB (antibody, V domains shown)
VH: B16 VH
VL: B16 VL with A12S, T14S, L37Q, T43A, R45K, S59P, D60S, K74T, R77S
B20: B2-H2K3-canIgGB (antibody, V domains shown)
VH: B16 VH with Q46E, L48V, T80M
VL: B16 VL with A12S, T14S, L37Q, T43A, R45K, S59P, D60S, K74T, R77S
B21: B2-H3K3-canIgGB (antibody, V domains shown)
VH: B16 VH with L48V
VL: B16 VL with A12S, T14S, L37Q, T43A, R45K, S59P, D60S, K74T, R77S
B22: B2-H2K1-canIgGB (antibody, V domains shown)
VH: B16 VH with Q46E, L48V, T80M
VL: B16 VL
B23: B2-H3K2-canIgGB (antibody, V domains shown)
VH: B16 VH with L48V
VL: B17 VL
B24: B2-H3K1-canIgGB (antibody, V domains shown)
VH: B16 VH with L48V
VL: B16 VL
B25: 6465-mHvKv-canIgGB (antibody, V domains shown)
VH: EVQLQQSGAELVRPGASVRLSCKASGYSFTNYYLYWVKQRPGQGLEWIGELNPRNGGTNLNAKFKTKATLTVDKSSNTAYMRLSSLTSEDSAVYYCTRGGTTVVVRDVMDFWGQGTSVTVSS
VL: DIELTQSPASLAVSLGQRATISCRASESVDSYGNSFMHWYQQKPGQPPKLLIYRASNLESGIPARFSGSGSRTDFTLTINPVEADDVATYYCQQSNEDPYTFGGGTKLEIKR

Biological target: His-tagged canine IL-31 (interleukin 31) recombinant protein (canine)
Assay: BLI (Gator), biotinylated antibody on streptavidin probe, canine IL-31 as analyte

| Binder | Kd [nM] | koff [s⁻¹] | kon [M⁻¹ s⁻¹] |
| --- | --- | --- | --- |
| B1 | 6.73 | 0.00156 | 231000 |
| B2 | 5.43 | 0.00055 | 101000 |
| B3 | 3.34 | 0.00204 | 611000 |
| B4 | 4.67 | 0.000759 | 162000 |
| B5 | 6.51 | 0.00192 | 295000 |
| B6 | 5.4 | 0.000539 | 100000 |
| B7 | 4.84 | 0.000542 | 112000 |
| B8 | 3.61 | 0.000481 | 133000 |
| B9 | 6.37 | 0.000614 | 96500 |
| B10 | 3.04 | 0.000243 | 79900 |
| B11 | 2.02 | 0.00164 | 812000 |
| B12 | 5.75 | 0.00121 | 211000 |
| B13 | 3.37 | 0.00171 | 508000 |
| B14 | 3.21 | 0.000979 | 305000 |
| B15 | 1.01 | 0.000251 | 250000 |
| B16 | 17.2 | 0.0013 | 75600 |
| B17 | 9.17 | 0.000882 | 96200 |
| B18 | 13.8 | 0.00115 | 82800 |
| B19 | 16.7 | 0.0015 | 89800 |
| B20 | 1.53 | 0.000143 | 93500 |
| B21 | 3.16 | 0.000381 | 121000 |
| B22 | 10 | 0.000942 | 93800 |
| B23 | 1.76 | 0.000188 | 107000 |
| B24 | 10.2 | 0.00114 | 112000 |
| B25 | 2.09 | 0.00106 | 507000 |

Biological target: His-tagged canine IL-31 (interleukin 31) recombinant protein (canine)
Assay: cell-based or functional assay

| Binder | pSTAT IC50 (µg/mL) |
| --- | --- |
| B1 | 8.4 |
| B2 | 7.9 |
| B3 | 6.9 |
| B4 | 7.2 |
| B5 | 8.2 |
| B6 | 7.8 |
| B7 | 7.5 |
| B8 | 7.1 |
| B9 | 8.1 |
| B10 | 6.8 |
| B11 | 7.2 |
| B12 | 7.8 |
| B13 | 7.3 |
| B14 | 7.5 |
| B15 | 6.7 |
| B16 | 9.4 |
| B17 | 7.8 |
| B18 | 9.2 |
| B19 | 9.3 |
| B20 | 7.1 |
| B21 | 7.4 |
| B22 | 8.3 |
| B23 | 7.2 |
| B24 | 8.5 |
| B25 | 7.1 |
